We go through 7 molecules from patent US12679878B2, “CRF2 receptor agonists and their use in therapy” (SANOFI, priority 2020, dated 2026).

For the assay, the target named is human corticotropin-releasing factor 2α (CRF2 α receptor) (human), Q13324. Kind of assay: cell-based or functional assay.

Starred links: 1 amine or outer side, 2 acyl side, 3 side chain; linkers in the order of their positions; H or OH if unused. Non-standard residues stand in square brackets, D forms with d. Groups on a side chain read outwards from the residue. No end group written: not given here. *: point of attachment. γGlu = O=C(O)[C@H](CCC(=O)[*:2])N[*:1]; Palmitoyl = CCCCCCCCCCCCCCCC(=O)*; Aib = CC(C)(N)C(=O)O

Chain of human corticotropin-releasing factor 2α (CRF2 α receptor) (human), Q13324 (Q13324 20-411): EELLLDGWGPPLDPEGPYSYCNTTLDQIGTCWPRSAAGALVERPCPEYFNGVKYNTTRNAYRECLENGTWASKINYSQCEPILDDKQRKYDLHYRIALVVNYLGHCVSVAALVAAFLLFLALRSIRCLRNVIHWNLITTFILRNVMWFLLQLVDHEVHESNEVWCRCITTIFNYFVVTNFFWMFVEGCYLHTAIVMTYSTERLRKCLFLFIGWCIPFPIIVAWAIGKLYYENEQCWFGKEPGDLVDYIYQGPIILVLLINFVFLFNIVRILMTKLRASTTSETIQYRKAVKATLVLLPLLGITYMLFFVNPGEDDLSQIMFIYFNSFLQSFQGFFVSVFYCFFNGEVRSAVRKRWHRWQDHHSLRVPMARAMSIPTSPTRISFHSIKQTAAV

B1: SEQ ID NO: 28 (peptide)
peptide: IVLSLD[dV]PTKLK([γGlu-Palmitoyl])KKLLKQERKRKEREKAEKAARILERV-NH2
modifications: N-terminus assumed
SMILES: CCCCCCCCCCCCCCCC(=O)N[C@@H](CCC(=O)NCCCC[C@H](NC(=O)[C@H](CC(C)C)NC(=O)[C@H](CCCCN)NC(=O)[C@@H](NC(=O)[C@@H]1CCCN1C(=O)[C@H](NC(=O)[C@H](CC(=O)O)NC(=O)[C@H](CC(C)C)NC(=O)[C@H](CO)NC(=O)[C@H](CC(C)C)NC(=O)[C@@H](NC(=O)[C@@H](N)[C@@H](C)CC)C(C)C)C(C)C)[C@@H](C)O)C(=O)N[C@@H](CCCCN)C(=O)N[C@@H](CCCCN)C(=O)N[C@@H](CC(C)C)C(=O)N[C@@H](CC(C)C)C(=O)N[C@@H](CCCCN)C(=O)N[C@@H](CCC(N)=O)C(=O)N[C@@H](CCC(=O)O)C(=O)N[C@@H](CCCNC(=N)N)C(=O)N[C@@H](CCCCN)C(=O)N[C@@H](CCCNC(=N)N)C(=O)N[C@@H](CCCCN)C(=O)N[C@@H](CCC(=O)O)C(=O)N[C@@H](CCCNC(=N)N)C(=O)N[C@@H](CCC(=O)O)C(=O)N[C@@H](CCCCN)C(=O)N[C@@H](C)C(=O)N[C@@H](CCC(=O)O)C(=O)N[C@@H](CCCCN)C(=O)N[C@@H](C)C(=O)N[C@@H](C)C(=O)N[C@@H](CCCNC(=N)N)C(=O)N[C@H](C(=O)N[C@@H](CC(C)C)C(=O)N[C@@H](CCC(=O)O)C(=O)N[C@@H](CCCNC(=N)N)C(=O)N[C@H](C(N)=O)C(C)C)[C@@H](C)CC)C(=O)O
B1 came in with an EC50 [nM], 0% HSA of 0.14 nM.

The molecule IVLSLD[dV]PTKLK([γGlu-Palmitoyl])QKLLKQERQRKEREQAEKNVRILERV-NH2 [SEQ ID NO: 32] registered an EC50 [nM], 0% HSA of 0.01 nM.

B2: SEQ ID NO: 31 (peptide)
peptide: IVLSLD[dV]PTKLK([γGlu-Palmitoyl])QKLLKQERQRKEREQAEKN[Aib]RILERV-NH2
modifications: N-terminus assumed
SMILES: CCCCCCCCCCCCCCCC(=O)N[C@@H](CCC(=O)NCCCC[C@H](NC(=O)[C@H](CC(C)C)NC(=O)[C@H](CCCCN)NC(=O)[C@@H](NC(=O)[C@@H]1CCCN1C(=O)[C@H](NC(=O)[C@H](CC(=O)O)NC(=O)[C@H](CC(C)C)NC(=O)[C@H](CO)NC(=O)[C@H](CC(C)C)NC(=O)[C@@H](NC(=O)[C@@H](N)[C@@H](C)CC)C(C)C)C(C)C)[C@@H](C)O)C(=O)N[C@@H](CCC(N)=O)C(=O)N[C@@H](CCCCN)C(=O)N[C@@H](CC(C)C)C(=O)N[C@@H](CC(C)C)C(=O)N[C@@H](CCCCN)C(=O)N[C@@H](CCC(N)=O)C(=O)N[C@@H](CCC(=O)O)C(=O)N[C@@H](CCCNC(=N)N)C(=O)N[C@@H](CCC(N)=O)C(=O)N[C@@H](CCCNC(=N)N)C(=O)N[C@@H](CCCCN)C(=O)N[C@@H](CCC(=O)O)C(=O)N[C@@H](CCCNC(=N)N)C(=O)N[C@@H](CCC(=O)O)C(=O)N[C@@H](CCC(N)=O)C(=O)N[C@@H](C)C(=O)N[C@@H](CCC(=O)O)C(=O)N[C@@H](CCCCN)C(=O)N[C@@H](CC(N)=O)C(=O)NC(C)(C)C(=O)N[C@@H](CCCNC(=N)N)C(=O)N[C@H](C(=O)N[C@@H](CC(C)C)C(=O)N[C@@H](CCC(=O)O)C(=O)N[C@@H](CCCNC(=N)N)C(=O)N[C@H](C(N)=O)C(C)C)[C@@H](C)CC)C(=O)O
B2 returned an EC50 [nM], 0% HSA of 0.01 nM.

B3: SEQ ID NO: 26 (peptide)
peptide: IVLSLD[dV]PTKLK([γGlu-Palmitoyl])KKLLKQERKRKERE[Aib]AEKNARILERV-NH2
modifications: N-terminus assumed
SMILES: CCCCCCCCCCCCCCCC(=O)N[C@@H](CCC(=O)NCCCC[C@H](NC(=O)[C@H](CC(C)C)NC(=O)[C@H](CCCCN)NC(=O)[C@@H](NC(=O)[C@@H]1CCCN1C(=O)[C@H](NC(=O)[C@H](CC(=O)O)NC(=O)[C@H](CC(C)C)NC(=O)[C@H](CO)NC(=O)[C@H](CC(C)C)NC(=O)[C@@H](NC(=O)[C@@H](N)[C@@H](C)CC)C(C)C)C(C)C)[C@@H](C)O)C(=O)N[C@@H](CCCCN)C(=O)N[C@@H](CCCCN)C(=O)N[C@@H](CC(C)C)C(=O)N[C@@H](CC(C)C)C(=O)N[C@@H](CCCCN)C(=O)N[C@@H](CCC(N)=O)C(=O)N[C@@H](CCC(=O)O)C(=O)N[C@@H](CCCNC(=N)N)C(=O)N[C@@H](CCCCN)C(=O)N[C@@H](CCCNC(=N)N)C(=O)N[C@@H](CCCCN)C(=O)N[C@@H](CCC(=O)O)C(=O)N[C@@H](CCCNC(=N)N)C(=O)N[C@@H](CCC(=O)O)C(=O)NC(C)(C)C(=O)N[C@@H](C)C(=O)N[C@@H](CCC(=O)O)C(=O)N[C@@H](CCCCN)C(=O)N[C@@H](CC(N)=O)C(=O)N[C@@H](C)C(=O)N[C@@H](CCCNC(=N)N)C(=O)N[C@H](C(=O)N[C@@H](CC(C)C)C(=O)N[C@@H](CCC(=O)O)C(=O)N[C@@H](CCCNC(=N)N)C(=O)N[C@H](C(N)=O)C(C)C)[C@@H](C)CC)C(=O)O
The molecule B3 displayed an EC50 [nM], 0% HSA of 0.01 nM.

B4: SEQ ID NO: 27 (peptide)
peptide: IVLSLD[dV]PTKLK([γGlu-Palmitoyl])KKLLKQERKRKEREQAEKNARILERV-NH2
modifications: N-terminus assumed
SMILES: CCCCCCCCCCCCCCCC(=O)N[C@@H](CCC(=O)NCCCC[C@H](NC(=O)[C@H](CC(C)C)NC(=O)[C@H](CCCCN)NC(=O)[C@@H](NC(=O)[C@@H]1CCCN1C(=O)[C@H](NC(=O)[C@H](CC(=O)O)NC(=O)[C@H](CC(C)C)NC(=O)[C@H](CO)NC(=O)[C@H](CC(C)C)NC(=O)[C@@H](NC(=O)[C@@H](N)[C@@H](C)CC)C(C)C)C(C)C)[C@@H](C)O)C(=O)N[C@@H](CCCCN)C(=O)N[C@@H](CCCCN)C(=O)N[C@@H](CC(C)C)C(=O)N[C@@H](CC(C)C)C(=O)N[C@@H](CCCCN)C(=O)N[C@@H](CCC(N)=O)C(=O)N[C@@H](CCC(=O)O)C(=O)N[C@@H](CCCNC(=N)N)C(=O)N[C@@H](CCCCN)C(=O)N[C@@H](CCCNC(=N)N)C(=O)N[C@@H](CCCCN)C(=O)N[C@@H](CCC(=O)O)C(=O)N[C@@H](CCCNC(=N)N)C(=O)N[C@@H](CCC(=O)O)C(=O)N[C@@H](CCC(N)=O)C(=O)N[C@@H](C)C(=O)N[C@@H](CCC(=O)O)C(=O)N[C@@H](CCCCN)C(=O)N[C@@H](CC(N)=O)C(=O)N[C@@H](C)C(=O)N[C@@H](CCCNC(=N)N)C(=O)N[C@H](C(=O)N[C@@H](CC(C)C)C(=O)N[C@@H](CCC(=O)O)C(=O)N[C@@H](CCCNC(=N)N)C(=O)N[C@H](C(N)=O)C(C)C)[C@@H](C)CC)C(=O)O
In the case of B4, the EC50 [nM], 0% HSA was 0.01 nM.

B5: SEQ ID NO: 30 (peptide)
peptide: IVLSLD[dV]PTKLK([γGlu-Palmitoyl])KKLLKQERKRKEREQAEKAARILERV-NH2
modifications: N-terminus assumed
SMILES: CCCCCCCCCCCCCCCC(=O)N[C@@H](CCC(=O)NCCCC[C@H](NC(=O)[C@H](CC(C)C)NC(=O)[C@H](CCCCN)NC(=O)[C@@H](NC(=O)[C@@H]1CCCN1C(=O)[C@H](NC(=O)[C@H](CC(=O)O)NC(=O)[C@H](CC(C)C)NC(=O)[C@H](CO)NC(=O)[C@H](CC(C)C)NC(=O)[C@@H](NC(=O)[C@@H](N)[C@@H](C)CC)C(C)C)C(C)C)[C@@H](C)O)C(=O)N[C@@H](CCCCN)C(=O)N[C@@H](CCCCN)C(=O)N[C@@H](CC(C)C)C(=O)N[C@@H](CC(C)C)C(=O)N[C@@H](CCCCN)C(=O)N[C@@H](CCC(N)=O)C(=O)N[C@@H](CCC(=O)O)C(=O)N[C@@H](CCCNC(=N)N)C(=O)N[C@@H](CCCCN)C(=O)N[C@@H](CCCNC(=N)N)C(=O)N[C@@H](CCCCN)C(=O)N[C@@H](CCC(=O)O)C(=O)N[C@@H](CCCNC(=N)N)C(=O)N[C@@H](CCC(=O)O)C(=O)N[C@@H](CCC(N)=O)C(=O)N[C@@H](C)C(=O)N[C@@H](CCC(=O)O)C(=O)N[C@@H](CCCCN)C(=O)N[C@@H](C)C(=O)N[C@@H](C)C(=O)N[C@@H](CCCNC(=N)N)C(=O)N[C@H](C(=O)N[C@@H](CC(C)C)C(=O)N[C@@H](CCC(=O)O)C(=O)N[C@@H](CCCNC(=N)N)C(=O)N[C@H](C(N)=O)C(C)C)[C@@H](C)CC)C(=O)O
In turn, B5 registered an EC50 [nM], 0% HSA of 0.16 nM.

B6: SEQ ID NO: 29 (peptide)
peptide: IVLSLD[dV]PTKLK([γGlu-Palmitoyl])KKLLKQERKRKERE[Aib]AEKAARILERV-NH2
modifications: N-terminus assumed
SMILES: CCCCCCCCCCCCCCCC(=O)N[C@@H](CCC(=O)NCCCC[C@H](NC(=O)[C@H](CC(C)C)NC(=O)[C@H](CCCCN)NC(=O)[C@@H](NC(=O)[C@@H]1CCCN1C(=O)[C@H](NC(=O)[C@H](CC(=O)O)NC(=O)[C@H](CC(C)C)NC(=O)[C@H](CO)NC(=O)[C@H](CC(C)C)NC(=O)[C@@H](NC(=O)[C@@H](N)[C@@H](C)CC)C(C)C)C(C)C)[C@@H](C)O)C(=O)N[C@@H](CCCCN)C(=O)N[C@@H](CCCCN)C(=O)N[C@@H](CC(C)C)C(=O)N[C@@H](CC(C)C)C(=O)N[C@@H](CCCCN)C(=O)N[C@@H](CCC(N)=O)C(=O)N[C@@H](CCC(=O)O)C(=O)N[C@@H](CCCNC(=N)N)C(=O)N[C@@H](CCCCN)C(=O)N[C@@H](CCCNC(=N)N)C(=O)N[C@@H](CCCCN)C(=O)N[C@@H](CCC(=O)O)C(=O)N[C@@H](CCCNC(=N)N)C(=O)N[C@@H](CCC(=O)O)C(=O)NC(C)(C)C(=O)N[C@@H](C)C(=O)N[C@@H](CCC(=O)O)C(=O)N[C@@H](CCCCN)C(=O)N[C@@H](C)C(=O)N[C@@H](C)C(=O)N[C@@H](CCCNC(=N)N)C(=O)N[C@H](C(=O)N[C@@H](CC(C)C)C(=O)N[C@@H](CCC(=O)O)C(=O)N[C@@H](CCCNC(=N)N)C(=O)N[C@H](C(N)=O)C(C)C)[C@@H](C)CC)C(=O)O
B6 returned an EC50 [nM], 0% HSA of 0.12 nM.
